Experimental findings from patent US7939292B2, “Modified heparinase III and methods of sequencing therewith” (Massachusetts Institute of Technology, priority 2000, dated 2011) are described below.

One experiment deals with Erk-1, 2. Description: Erk-1, 2 activation in FGF2 stimulated B16BL6 cells (immunoblot). The class given is cell-based. To be noted: enzyme 200 nM 30 min before 50 ng/ml FGF2. The method, then: a. Methods: B16BL6 cells in 10 cm culture dishes were serum starved for 48 hours before stimulation with 50 ng/ml FGF2. Cells were stimulated for 20 minutes before whole cell lysates were prepared with 1 ml modified RIPA buffer containing various enzyme inhibitors (50 mM Tris-HCl, pH 7.4, 1% NP-40, 0.25% Na-deoxycholate, 150 mM NaCl, 1 mM EDTA, 1 mM PMSF, 1 μg/ml aprotinin, leupeptin, and pepstatin, 1 mM activated Na3VO4, 1 mM NaF). Protein concentration in the lysate was determined using the Bio-Rad protein assay kit (BioRad) and adjusted accordingly for electrophoresis analysis. For the heparinase treated groups, cells were treated with either hep I or hep III (200 nM) for 30 min at 37° C. prior to addition of FGF2. The immunoblot was probed with anti-Erk-1, 2 or anti-phospho-Erk-1, 2 antibody (New England Biolabs; MA) and detected by anti-rabbit IgG conjugated to HRP using SuperSignal West Pico Chemiluminescent substrate (Pierce, Ill.).
In general terms: In western blotting, separated proteins are transferred to a membrane and probed.

A further experiment deals with LLC cells. As to the kind of experiment: Lung metastasis of LLC cells injected through tail vein. The class given is in vivo, mice. To be noted: cells incubated with enzyme before tail vein injection. The method, then:
(§1) To ensure that these observations were not limited to the tumor model chosen, hep III was used to treat mice bearing Lewis lung carcinoma (LLC) tumors. Growth curves of primary tumor growth for LLC tumor in C57BL/6 mice treated with either PBS or heparinase III were plotted. 4×10^5 log phase LLC cells were injected subcutaneously to the flank of mice on day 1. Daily injection of 0.1 ml of either PBS or 2 mg/ml recombinantly expressed heparinase III started at the day 4 and continued throughout the experiment. At day 8, osmotic pumps (100 μl capacity delivering at 0.5 μl per hour) containing PBS or 3 mg/ml hep III were implanted subcutaneously at a place remote from the tumor site. Mice were sacrificed at day 20. Lung metastasis of LLC cells injected through tail vein were quantitated as number of lung nodules. Log growth LLC cells were trypsinized for 30 seconds and resuspended in PBS to a final concentration of 1×10^6 per ml. For experimental group, cells were incubated with […] hep III for 30 minutes at 37° C. before injecting 0.2 ml of cell suspension via tail vein. Mice were euthanized 12 days after tail vein injections, lungs were harvested, rinsed in tap water and fixed overnight in Bouin's solution. The number of nodules on lung surface was counted with the aid of a dissection microscope.

A further experiment relates to B16BL6 cells. As to the kind of experiment: Growth in mice of B16BL6 cells after heparinase removal of the HLGAG coat. The class given is in vivo. To be noted: HLGAG coat removed. An excerpt: There are two possible mechanisms by which heparinase may be acting on tumor cells. For instance, heparinase III treatment of cells may result in cells losing their unique surface HLGAG coat and this directly or indirectly may impinge on their ability to grow or metastasize. On the other hand heparinase III treatment of cells may also result in the generation of distinct HLGAG fragments, and these fragments could then directly or indirectly modulate tumor cell function. It was thought that heparinase III may function though either one of these mechanisms or through some combination of these mechanisms. To investigate the mechanisms of action further, we treated B16BL6 cells with either heparinases I or III, to remove the HLGAG coat on the tumor cell surface.
In further support of this conclusion ex vivo digestion of the HLGAG coat present on tumor cells with either heparinase, followed by centrifugation and resuspension in PBS to remove the enzyme and HLGAG fragments released from the cell surface, prior to in vivo injection results in the cells being functionally identical to controls. Thus the released tumor cell HLGAG fragments appear to play the key role in modulating tumor growth and metastasis.

For experiment [1], the system named is Lewis lung carcinoma (LLC) tumors. As to the kind of experiment: Primary tumor growth of Lewis lung carcinoma (LLC) in mice. The class given is in vivo. The note with it: 12 mg/kg per day. How it is done: as §1

B1: heparinase III: HLGAG degrading enzyme from Flavobacterium heparinum (EC 4.2.2.8), SEQ ID NO:2; cleaves heparan sulfate (protein, listed as Pedobacter heparinus)
chain: MTTKIFKRIIVFAVIALSSGNILAQSSSITRKDFDHINLEYSGLEKVNKAVAAGNYDDAAKALLAYYREKSKAREPDFSNAEKPADIRQPIDKVTREMADKALVHQFQPHKGYGYFDYGKDINWQMWPVKDNEVRWQLHRVKWWQAMALVYHATGDEKYAREWVYQYSDWARKNPLGLSQDNDKFVWRPLEVSDRVQSLPPTFSLFVNSPAFTPAFLMEFLNSYHQQADYLSTHYAEQGNHRLFEAQRNLFAGVSFPEFKDSPRWRQTGISVLNTEIKKQVYADGMQFELSPIYHVAAIDIFLKAYGSAKRVNLEKEFPQSYVQTVENMIMALISISLPDYNTPMFGDSWITDKNFRMAQFASWARVFPANQAIKYFATDGKQGKAPNFLSKALSNAGFYTFRSGWDKNATVMVLKASPPGEFHAQPDNGTFELFIKGRNFTPDAGVFVYSGDEAIMKLRNWYRQTRIHSTLTLDNQNMVITKARQNKWETGNNLDVLTYTNPSYPNLDHQRSVLFINKKYFLVIDRAIGEATGNLGVHWQLKEDSNPVFDKTKNRVYTTYRDGNNLMIQSLNADRTSLNEEEGKVSYVYNKELKRPAFVFEKPKKNAGTQNFVSIVYPYDGQKAPEISIRENKGNDFEKGKLNLTLTINGKQQLVLVP
For the molecule B1, the “Erk-1, 2 activation upon FGF2 stimulation” value in the experiment on Erk-1, 2 was “decreased Erk-1, 2 activation”. Besides, in the experiment on LLC cells, the “colonization of lungs by LLC cells” value is on record as “inhibited the LLC cells to colonize in the lungs”. The “ability of treated B16BL6 cells to grow in mice compared to untreated cells” value with B16BL6 cells is recorded as “no effect”. The LLC tumor growth entry in experiment [1] is “inhibition in tumor growth”.
